# Laboratory results: US20230391845A1, “GLP-1, GIP AND GLUCAGON RECEPTOR TRIPLE AGONISTS” (priority 2020, published 2023)
# Where no end group is shown, it is not given here. [ ]: non-standard residue; d: D form. Aib = CC(C)(N)C(=O)O
# T1: human glucose-dependent insulinotropic polypeptide receptor (human, UniProt P48546 22-466)
# T1 sequence (looked up): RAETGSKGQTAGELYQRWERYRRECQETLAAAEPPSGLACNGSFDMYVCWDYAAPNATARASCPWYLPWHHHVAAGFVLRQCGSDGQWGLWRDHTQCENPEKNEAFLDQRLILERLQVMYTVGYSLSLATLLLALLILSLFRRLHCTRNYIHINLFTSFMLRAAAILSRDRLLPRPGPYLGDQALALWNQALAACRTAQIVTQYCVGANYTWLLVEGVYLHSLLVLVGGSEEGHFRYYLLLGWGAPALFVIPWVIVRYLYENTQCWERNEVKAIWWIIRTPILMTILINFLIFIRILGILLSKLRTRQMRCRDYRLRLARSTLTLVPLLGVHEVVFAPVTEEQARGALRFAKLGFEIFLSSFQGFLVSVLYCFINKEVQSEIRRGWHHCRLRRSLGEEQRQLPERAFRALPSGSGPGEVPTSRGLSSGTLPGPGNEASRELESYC
# Experiments:
# Test in all cases: cell-based or functional assay
# [1] = target: human glucagon-like peptide 1 receptor (human, UniProt P43220 24-463)
# [2] = target: T1, human glucose-dependent insulinotropic …
# [3] = target: human glucagon receptor (human, UniProt P47871 26-477)
# Sequence of human glucagon receptor (P47871 26-477): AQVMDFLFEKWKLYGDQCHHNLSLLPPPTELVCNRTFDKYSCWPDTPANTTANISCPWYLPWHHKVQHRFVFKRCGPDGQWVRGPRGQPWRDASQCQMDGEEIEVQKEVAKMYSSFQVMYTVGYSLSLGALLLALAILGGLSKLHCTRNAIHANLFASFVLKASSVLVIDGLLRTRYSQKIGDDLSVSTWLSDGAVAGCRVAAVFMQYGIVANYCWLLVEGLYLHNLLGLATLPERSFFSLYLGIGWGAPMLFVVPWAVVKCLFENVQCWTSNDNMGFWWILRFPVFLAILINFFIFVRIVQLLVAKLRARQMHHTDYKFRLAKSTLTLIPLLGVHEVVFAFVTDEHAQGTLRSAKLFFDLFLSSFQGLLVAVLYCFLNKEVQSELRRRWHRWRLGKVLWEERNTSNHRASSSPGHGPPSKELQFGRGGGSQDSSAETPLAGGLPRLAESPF
Binder,hGLP-1R CRE Luc EC50 (pM) [1],hGIPR CRE Luc EC50 (pM) [2],hGcgR CRE Luc EC50 (pM) [3]
H[Aib]HGTFTSDYSYYLEKQAA[Aib]EFVQWLLEGGPSSGAPPPS-NH2 (not fully specified (residue 16); printed as H-Aib-HGTFTSDYSYYLE-K[2-[2-[2-[[2-[2-[2-[[(4S)-4-carboxy-4-(19-carboxynonadecanoylamino)butanoyl]amino]ethoxy]ethoxy]acetyl]amino]ethoxy]ethoxy]acetyl]-QAA-Aib-EFVQWLLEGGPSSGAPPPS-NH2) [Compound No. 40],3.7 pM,5.7 pM,36.4 pM
H[Aib]HGTFTSDYSILLEKQAAEEFVQWLLEGGPSSGAPPPS-OH (not fully specified (residue 16); printed as H-Aib-HGTFTSDYSILLE-K[(2S)-2-amino-6-[[(2S)-2-amino-6-[[(4S)-4-carboxy-4-(17-carboxyheptadecanoylamino)butanoyl]amino]hexanoyl]amino]hexanoyl]-QAAEEFVQWLLEGGPSSGAPPPS-OH) [Compound No. 51],0.7 pM,1.8 pM,79.9 pM
H[Aib]HGTFTSDYSILLEKQAA[Aib]EFVQWLLEGGPSSGAPPPS-NH2 (not fully specified (residue 16); printed as H-Aib-HGTFTSDYSILLE-K[(2S)-2-amino-6-[[(2S)-2-amino-6-[[(4S)-4-carboxy-4-(19-carboxynonadecanoylamino)butanoyl]amino]hexanoyl]amino]hexanoyl]-QAA-Aib-EFVQWLLEGGPSSGAPPPS-NH2) [Compound No. 43],3 pM,2.8 pM,10.8 pM
H[Aib]HGTFTSDYSILLEKKYA[Aib]EFVQWLLEGGPSSGAPPPS-NH2 (not fully specified (residue 16); printed as H-Aib-HGTFTSDYSILLE-K[(2S)-2-amino-6-[[(2S)-2-amino-6-[[(4S)-4-carboxy-4-(19-carboxynonadecanoylamino)butanoyl]amino]hexanoyl]amino]hexanoyl]-KYA-Aib-EFVQWLLEGGPSSGAPPPS-NH2) [Compound No. 41],4.3 pM,9.3 pM,7.6 pM
H[Aib]HGTFTSDYSIYLEKRAA[Aib]EFVQWLLEGGPSSGAPPPS-NH2 (not fully specified (residue 16); printed as H-Aib-HGTFTSDYSIYLE-K[(2S)-2-amino-6-[[(2S)-2-amino-6-[[(4S)-4-carboxy-4-(19-carboxynonadecanoylamino)butanoyl]amino]hexanoyl]amino]hexanoyl]-RAA-Aib-EFVQWLLEGGPSSGAPPPS-NH2) [Compound No. 37],1.8 pM,10.8 pM,11.8 pM
Y[Aib]QGTFTSDYSILLEKQAA[Aib]EFVQWLLEGGPSSGAPPPS-NH2 (not fully specified (residue 16); printed as Y-Aib-QGTFTSDYSILLE-K[(2S)-2-amino-6-[[(2S)-2-amino-6-[[(4S)-4-carboxy-4-(19-carboxynonadecanoylamino)butanoyl]amino]hexanoyl]amino]hexanoyl]-QAA-Aib-EFVQWLLEGGPSSGAPPPS-NH2) [Compound No. 46],8.3 pM,3 pM,25 pM
Y[Aib]QGTFTSDYSYYLEKQAA[Aib]EFVQWLLEGGPSSGAPPPS-NH2 (not fully specified (residue 16); printed as Y-Aib-QGTFTSDYSYYLE-K[(2S)-2-amino-6-[[(2S)-2-amino-6-[[(4S)-4-carboxy-4-(19-carboxynonadecanoylamino)butanoyl]amino]hexanoyl]amino]hexanoyl]-QAA-Aib-EFVQWLLEGGPSSGAPPPS-NH2) [Compound No. 47],5.6 pM,14.9 pM,28.7 pM
H[Aib]HGTFTSDYSIYLEKQAA[Aib]EFVQWLLEGGPSSGAPPPS-NH2 (not fully specified (residue 16); printed as H-Aib-HGTFTSDYSIYLE-K[2-[2-[2-[[2-[2-[2-[[(4S)-4-carboxy-4-(19-carboxynonadecanoylamino)butanoyl]amino]ethoxy]ethoxy]acetyl]amino]ethoxy]ethoxy]acetyl]-QAA-Aib-EFVQWLLEGGPSSGAPPPS-NH2) [Compound No. 44],1.8 pM,6.1 pM,45.2 pM
Y[Aib]QGTFTSDYSYLLEKQAA[Aib]EFVQWLLEGGPSSGAPPPS-NH2 (not fully specified (residue 16); printed as Y-Aib-QGTFTSDYSYLLE-K[(2S)-2-amino-6-[[(2S)-2-amino-6-[[(4S)-4-carboxy-4-(19-carboxynonadecanoylamino)butanoyl]amino]hexanoyl]amino]hexanoyl]-QAA-Aib-EFVQWLLEGGPSSGAPPPS-NH2) [Compound No. 48],10.1 pM,9.2 pM,12.6 pM
H[Aib]HGTFTSDYSIYLEKKYA[Aib]EFVQWLLEGGPSSGAPPPS-NH2 (not fully specified (residue 16); printed as H-Aib-HGTFTSDYSIYLE-K[2-[2-[2-[[2-[2-[2-[[(4S)-4-carboxy-4-(19-carboxynonadecanoylamino)butanoyl]amino]ethoxy]ethoxy]acetyl]amino]ethoxy]ethoxy]acetyl]-KYA-Aib-EFVQWLLEGGPSSGAPPPS-NH2) [Compound No. 39],4.4 pM,17.9 pM,12.9 pM
H[Aib]HGTFTSDYSIYLEKKYA[Aib]EFVQWLLEGGPSSGAPPPS-NH2 (not fully specified (residue 16); printed as H-Aib-HGTFTSDYSIYLE-K[(2S)-2-amino-6-[[(2S)-2-amino-6-[[(4S)-4-carboxy-4-(17-carboxyheptadecanoylamino)butanoyl]amino]hexanoyl]amino]hexanoyl]-KYA-Aib-EFVQWLLEGGPSSGAPPPS-NH2) [Compound No. 38],2.8 pM,13.1 pM,6.4 pM
H[Aib]HGTFTSDYSILLEKQAAEEFVQWLLEGGPSSGAPPPS-NH2 (not fully specified (residue 16); printed as H-Aib-HGTFTSDYSILLE-K[(2S)-2-amino-6-[[(2S)-2-amino-6-[[(4S)-4-carboxy-4-(19-carboxynonadecanoylamino)butanoyl]amino]hexanoyl]amino]hexanoyl]-QAAEEFVQWLLEGGPSSGAPPPS-NH2) [Compound No. 49],1.4 pM,2.1 pM,3.5 pM
H[Aib]HGTFTSDYSILLEKQAAEEFVQWLLEGGPSSGAPPPS-OH (not fully specified (residue 16); printed as H-Aib-HGTFTSDYSILLE-K[(2S)-2-amino-6-[[(2S)-2-amino-6-[[(4S)-4-carboxy-4-(19-carboxynonadecanoylamino)butanoyl]amino]hexanoyl]amino]hexanoyl]-QAAEEFVQWLLEGGPSSGAPPPS-OH) [Compound No. 50],1 pM,1.9 pM,18.5 pM
H[Aib]HGTFTSDYSYLLEKQAA[Aib]EFVQWLLEGGPSSGAPPPS-NH2 (not fully specified (residue 16); printed as H-Aib-HGTFTSDYSYLLE-K[(2S)-2-amino-6-[[(2S)-2-amino-6-[[(4S)-4-carboxy-4-(19-carboxynonadecanoylamino)butanoyl]amino]hexanoyl]amino]hexanoyl]-QAA-Aib-EFVQWLLEGGPSSGAPPPS-NH2) [Compound No. 42],1.9 pM,3.8 pM,8 pM
H[Aib]HGTFTSDYSILLEKQAA[Aib]EFVQWLLEGGPSSGAPPPS-NH2 (not fully specified (residue 16); printed as H-Aib-HGTFTSDYSILLE-K[2-[2-[2-[[2-[2-[2-[[(4S)-4-carboxy-4-(19-carboxynonadecanoylamino)butanoyl]amino]ethoxy]ethoxy]acetyl]amino]ethoxy]ethoxy]acetyl]-QAA-Aib-EFVQWLLEGGPSSGAPPPS-NH2) [Compound No. 45],2.4 pM,1.9 pM,6.8 pM
